B1: Lem2_(261–279) [S. pombe] / Bqt4_(2–140), N-terminal domain of Bqt4 [S. pombe] (parent complex)
chain 1: SAEEDDELFQNYVLQQTRK
chain 2: TENEKSRSLPAERNPLYKDDTLDHTPLIPKCRAQVIEFPDGPATFVRLKCTNPESKVPHFLMRMAKDSSISATSMFRSAFPKATQEEEDLEMRWIRDNLNPIEDKRVAGLWVPPADALALAKDYSMTPFINALLEASST
B2: Rap1_(479–527) [S. pombe] / Bqt4_(2–140), N-terminal domain of Bqt4 [S. pombe] (parent complex)
chain 1: EIPLLSDYSDSENISEKSSDDEEAFEKQVTSSYSSPIKVKSQGKSSKGS
chain 2: B1 chain 2
B3: Sad1 (residues 88–101) [S. pombe] / Bqt4_(2–140), N-terminal domain of Bqt4 [S. pombe] (parent complex)
chain 1: SDNEEFENVVKNGH
chain 2: B1 chain 2

In the first assay the parent is B1. Put plainly: ITC; parent: 530 nM. For orientation: ITC needs no label: the signal is the heat of the interaction.
Turning to chain 2 TENEKSRSLPAERNPLYKDDTLDHTPLIPKCRAQVIEFPDGPATFVELKCTNPESKVPHFLMRMAKDSSISATSMFRSAFPKATQEEEDLEMRWIRDNLNPIEDKRVAGLWVPPADALALAKDYSMTPFINALLEASST [chain 2 R47E], the Kd – broadly, the concentration at which binding is half-saturated – is 3.2 µM.

As for chain 2 TENEKSRSLPAERNPLYKDDTLDHTPLIPKCRAQVIEFPDGPATFVRLKCTNPESKVPHALMRMAKDSSISATSMFRSAFPKATQEEEDLEMRWIRDNLNPIEDKRVAGLWVPPADALALAKDYSMTPFINALLEASST [chain 2 F60A], the Kd amounted to 46 µM.

The next assay covers variants of B2. Put plainly: ITC; parent: 1.14e+04 nM.
As for chain 1 EIPLLSDYSDSENISEKSSDDEEAFEKQVTSSYEEPIKVKSQGKSSKGS [chain 1 S34E, chain 1 S35E], the Kd stood at 115 µM.

With chain 1 EIPLLSDYSDSENISEKSEDDEEAFEKQVTSSYSSPIKVKSQGKSSKGS [chain 1 S19E], the Kd turned out to be 2.6 µM.

As to chain 1 EIPLLSDYSDSENISEKSADDEEAFEKQVTSSYSSPIKVKSQGKSSKGS [chain 1 S19A], the Kd turned out to be 9.5 µM.

Consider chain 1 EIPLLSDYSDSENISEKSSDDEEAFEKQVTSSYSEPIKVKSQGKSSKGS [chain 1 S35E], for which the Kd came to 57.8 µM.

As for chain 1 EIPLLSDYSDSENISEKSSDDEEAFEKQVTSSYSAPIKVKSQGKSSKGS [chain 1 S35A], the Kd worked out at 7.9 µM.

With chain 1 EIPLLSDYSDSENISEKEEDDEEAFEKQVTSSYSSPIKVKSQGKSSKGS [chain 1 S18E, chain 1 S19E], the Kd was determined as 0.9 µM.

Take chain 1 EIPLLSDYSDSENISEKSSDDEEAFEKQVTSSYASPIKVKSQGKSSKGS [chain 1 S34A]: the Kd is 7.1 µM.

For the variant chain 1 EIPLLSDYSDSENISEKSSDDEEAFEKQVTSSYESPIKVKSQGKSSKGS [chain 1 S34E], the Kd turned out to be 27.2 µM.

As for chain 1 EIPLLSDYSDSENISEKAADDEEAFEKQVTSSYSSPIKVKSQGKSSKGS [chain 1 S18A, chain 1 S19A], the Kd amounted to 8 µM.

Turning to chain 1 EIPLLSDYSDSENISEKASDDEEAFEKQVTSSYSSPIKVKSQGKSSKGS [chain 1 S18A], the Kd was 10.6 µM.

For the variant chain 1 EIPLLSDYSDSENISEKESDDEEAFEKQVTSSYSSPIKVKSQGKSSKGS [chain 1 S18E], the Kd was 2.4 µM.

As to chain 1 EIPLLSDYSDSENISEKSSDDEEAFEKQVTSSYAAPIKVKSQGKSSKGS [chain 1 S34A, chain 1 S35A], the Kd turned out to be 7.3 µM.

In the next assay the parent is B2. Description: ITC; parent: 1.14e+04 nM. The source holds these as a separate data set.
For the variant chain 2 TENEKSRSLPAERNPLYKDDTLDHTPLIPKCAAQVIEFPDGPATFVRLKCTNPESKVPHFLMRMAKDSSISATSMFRSAFPKATQEEEDLEMRWIRDNLNPIEDKRVAGLWVPPADALALAKDYSMTPFINALLEASST [chain 2 R32A], the Kd came out at 12.3 µM.

For chain 2 TENEKSRSLPAERNPLYKDDTLDHTPLIPKCRAQVIEFPDGPATFVRLKCTNPESKVPHFLMRMAKDSSISATSMFRSAFPKATQEEERLEMRWIRDNLNPIEDKRVAGLWVPPADALALAKDYSMTPFINALLEASST [chain 2 D89R], the Kd worked out at 14.4 µM.

In a further assay the parent is B2. Put plainly: ITC; parent: 1.14e+04 nM. This is another data set of the same source.
On to chain 1 EIPLLSDYSDSENISEKSSDDEEAFEKQATSSYSSPIKVKSQGKSSKGS [chain 1 V29A], for which the Kd is 138 µM.

On to chain 1 EIPLLSDYSDSENISEKSSDDEEAAEKQVTSSYSSPIKVKSQGKSSKGS [chain 1 F25A], for which the Kd came out at 106 µM.

For chain 1 EIPLLSDYSDSENISEKSSDAAEAFEKQVTSSYSSPIKVKSQGKSSKGS [chain 1 D21A, chain 1 E22A], the Kd is 862 µM.

In another assay the parent is B2. Description: ITC; parent: 1.14e+04 nM. The source holds these as a separate data set.
Turning to chain 2 TENEKSRSLPAERNPLYKDDTLDHTPLIPKCRAQVIEFPDGPATFVRLKCTNPESKVPHALMRMAKDSSISATSMFRSAFPKATQEEEDLEMRWIRDNLNPIEDKRVAGLWVPPADALALAKDYSMTPFINALLEASST [chain 2 F60A], the Kd is 909 µM.

The variants in another assay derive from B3. Description: ITC; parent: 3.7e+03 nM.
With chain 2 TENEKSRSLPAERNPLYKDDTLDHTPLIPKCRAQVIEFPDGPATFVELKCTNPESKVPHFLMRMAKDSSISATSMFRSAFPKATQEEEDLEMRWIRDNLNPIEDKRVAGLWVPPADALALAKDYSMTPFINALLEASST [chain 2 R47E], the Kd was 262 µM.

Source of the values: PMC6379675, “Structural insights into chromosome attachment to the nuclear envelope by an inner nuclear membrane protein Bqt4 in fission yeast” (Nucleic Acids Research, 2018).
